B1: AXIN1 peptide 237-252 (Axin-1), 16-mer library wild type / PP2A B56 (PPP2R5A B56 domain, residues 1-486) (parent complex)
chain 1: YLPTLNEDEEWKADQD
chain 2: not shown

Variants of: B1
Experiment: proteomic peptide phage display deep mutational scan (ProP-PD DMS): M13 P8 16-mer library selected against immobilised GST-tagged bait for four days (rounds), NGS of the eluted pools per day and pseudo-replica; bait immobilised on MaxiSorp plates (10 µg), library pre-cleared on GST, 2 h binding at 4 °C, five washes; one round per day, days 1-4; value from days 2 and 3
In the case of chain 1 L5W, the screen value is reported as 0.000869 average fractional NGS count over selection days 2 and 3 (reads of this peptide / all reads for the bait, averaged over ….
With chain 1 L5V the screen value was 0.00197 average fractional NGS count over selection days 2 and 3 (reads of this peptide / all reads for the bait, averaged over ….
chain 1 L5I was tested, and the screen value was 0.00162 average fractional NGS count over selection days 2 and 3 (reads of this peptide / all reads for the bait, averaged over ….
With chain 1 L2M the screen value was 0.000692 average fractional NGS count over selection days 2 and 3 (reads of this peptide / all reads for the bait, averaged over ….
chain 1 A13R was tested, and the screen value was 0.000134 average fractional NGS count over selection days 2 and 3 (reads of this peptide / all reads for the bait, averaged over ….
chain 1 A13Q was tested, and the screen value was 0.000245 average fractional NGS count over selection days 2 and 3 (reads of this peptide / all reads for the bait, averaged over ….
chain 1 A13S was tested, and the screen value was 0.0021 average fractional NGS count over selection days 2 and 3 (reads of this peptide / all reads for the bait, averaged over ….
In the case of chain 1 A13N, the screen value is reported as 0.000152 average fractional NGS count over selection days 2 and 3 (reads of this peptide / all reads for the bait, averaged over ….
For chain 1 A13T, the screen value was 0.000184 average fractional NGS count over selection days 2 and 3 (reads of this peptide / all reads for the bait, averaged over ….
chain 1 A13I was tested, and the screen value was 0.00149 average fractional NGS count over selection days 2 and 3 (reads of this peptide / all reads for the bait, averaged over ….
chain 1 A13G was tested, and the screen value was 0.000231 average fractional NGS count over selection days 2 and 3 (reads of this peptide / all reads for the bait, averaged over ….
For chain 1 A13L, the screen value was 0.000528 average fractional NGS count over selection days 2 and 3 (reads of this peptide / all reads for the bait, averaged over ….
For chain 1 A13V, the screen value was 0.000342 average fractional NGS count over selection days 2 and 3 (reads of this peptide / all reads for the bait, averaged over ….
With chain 1 A13P the screen value was 0.00194 average fractional NGS count over selection days 2 and 3 (reads of this peptide / all reads for the bait, averaged over ….
In the case of chain 1 A13H, the screen value is reported as 0.00442 average fractional NGS count over selection days 2 and 3 (reads of this peptide / all reads for the bait, averaged over ….
In the case of chain 1 Y1R, the screen value is reported as 0.000195 average fractional NGS count over selection days 2 and 3 (reads of this peptide / all reads for the bait, averaged over ….
In the case of chain 1 Y1N, the screen value is reported as 0.000299 average fractional NGS count over selection days 2 and 3 (reads of this peptide / all reads for the bait, averaged over ….
chain 1 Y1Q was tested, and the screen value was 0.000381 average fractional NGS count over selection days 2 and 3 (reads of this peptide / all reads for the bait, averaged over ….
In the case of chain 1 Y1A, the screen value is reported as 0.000622 average fractional NGS count over selection days 2 and 3 (reads of this peptide / all reads for the bait, averaged over ….
In the case of chain 1 Y1K, the screen value is reported as 0.000785 average fractional NGS count over selection days 2 and 3 (reads of this peptide / all reads for the bait, averaged over ….
With chain 1 Y1V the screen value was 0.000255 average fractional NGS count over selection days 2 and 3 (reads of this peptide / all reads for the bait, averaged over ….
chain 1 Y1S was tested, and the screen value was 0.000305 average fractional NGS count over selection days 2 and 3 (reads of this peptide / all reads for the bait, averaged over ….
In the case of chain 1 Y1W, the screen value is reported as 0.000316 average fractional NGS count over selection days 2 and 3 (reads of this peptide / all reads for the bait, averaged over ….
chain 1 Y1H was tested, and the screen value was 0.000114 average fractional NGS count over selection days 2 and 3 (reads of this peptide / all reads for the bait, averaged over ….
chain 1 Y1L was tested, and the screen value was 0.00157 average fractional NGS count over selection days 2 and 3 (reads of this peptide / all reads for the bait, averaged over ….
chain 1 E10M was tested, and the screen value was 0.00109 average fractional NGS count over selection days 2 and 3 (reads of this peptide / all reads for the bait, averaged over ….
chain 1 E10T was tested, and the screen value was 0.00217 average fractional NGS count over selection days 2 and 3 (reads of this peptide / all reads for the bait, averaged over ….
chain 1 E10I was tested, and the screen value was 0.0037 average fractional NGS count over selection days 2 and 3 (reads of this peptide / all reads for the bait, averaged over ….
For chain 1 E10R, the screen value was 0.000173 average fractional NGS count over selection days 2 and 3 (reads of this peptide / all reads for the bait, averaged over ….
chain 1 E10V was tested, and the screen value was 0.0046 average fractional NGS count over selection days 2 and 3 (reads of this peptide / all reads for the bait, averaged over ….
chain 1 E10P was tested, and the screen value was 0.00206 average fractional NGS count over selection days 2 and 3 (reads of this peptide / all reads for the bait, averaged over ….
With chain 1 E10Y the screen value was 0.00105 average fractional NGS count over selection days 2 and 3 (reads of this peptide / all reads for the bait, averaged over ….
In the case of chain 1 T4S, the screen value is reported as 0.000737 average fractional NGS count over selection days 2 and 3 (reads of this peptide / all reads for the bait, averaged over ….
With chain 1 T4A the screen value was 0.000216 average fractional NGS count over selection days 2 and 3 (reads of this peptide / all reads for the bait, averaged over ….
In the case of chain 1 T4P, the screen value is reported as 0.00197 average fractional NGS count over selection days 2 and 3 (reads of this peptide / all reads for the bait, averaged over ….
For chain 1 T4Q, the screen value was 0.00351 average fractional NGS count over selection days 2 and 3 (reads of this peptide / all reads for the bait, averaged over ….
chain 1 D8G was tested, and the screen value was 0.0025 average fractional NGS count over selection days 2 and 3 (reads of this peptide / all reads for the bait, averaged over ….
With chain 1 D8Q the screen value was 0.00238 average fractional NGS count over selection days 2 and 3 (reads of this peptide / all reads for the bait, averaged over ….
chain 1 D8L was tested, and the screen value was 0.00362 average fractional NGS count over selection days 2 and 3 (reads of this peptide / all reads for the bait, averaged over ….
For chain 1 D8Y, the screen value was 0.00257 average fractional NGS count over selection days 2 and 3 (reads of this peptide / all reads for the bait, averaged over ….
chain 1 D8E was tested, and the screen value was 0.000771 average fractional NGS count over selection days 2 and 3 (reads of this peptide / all reads for the bait, averaged over ….
In the case of chain 1 D8R, the screen value is reported as 0.000182 average fractional NGS count over selection days 2 and 3 (reads of this peptide / all reads for the bait, averaged over ….
For chain 1 D8K, the screen value was 0.00103 average fractional NGS count over selection days 2 and 3 (reads of this peptide / all reads for the bait, averaged over ….
With chain 1 D8S the screen value was 0.0116 average fractional NGS count over selection days 2 and 3 (reads of this peptide / all reads for the bait, averaged over ….
For chain 1 D8A, the screen value was 0.000509 average fractional NGS count over selection days 2 and 3 (reads of this peptide / all reads for the bait, averaged over ….
In the case of chain 1 D8T, the screen value is reported as 0.000632 average fractional NGS count over selection days 2 and 3 (reads of this peptide / all reads for the bait, averaged over ….
For chain 1 D8H, the screen value was 0.00852 average fractional NGS count over selection days 2 and 3 (reads of this peptide / all reads for the bait, averaged over ….
For chain 1 D8F, the screen value was 0.000675 average fractional NGS count over selection days 2 and 3 (reads of this peptide / all reads for the bait, averaged over ….
With chain 1 W11H the screen value was 0.000184 average fractional NGS count over selection days 2 and 3 (reads of this peptide / all reads for the bait, averaged over ….
With chain 1 W11R the screen value was 0.000154 average fractional NGS count over selection days 2 and 3 (reads of this peptide / all reads for the bait, averaged over ….
With chain 1 W11Y the screen value was 0.000932 average fractional NGS count over selection days 2 and 3 (reads of this peptide / all reads for the bait, averaged over ….
In the case of chain 1 W11S, the screen value is reported as 0.000194 average fractional NGS count over selection days 2 and 3 (reads of this peptide / all reads for the bait, averaged over ….
For chain 1 W11L, the screen value was 0.000123 average fractional NGS count over selection days 2 and 3 (reads of this peptide / all reads for the bait, averaged over ….
chain 1 W11T was tested, and the screen value was 0.000334 average fractional NGS count over selection days 2 and 3 (reads of this peptide / all reads for the bait, averaged over ….
With chain 1 W11F the screen value was 0.0013 average fractional NGS count over selection days 2 and 3 (reads of this peptide / all reads for the bait, averaged over ….
With chain 1 K12L the screen value was 0.00105 average fractional NGS count over selection days 2 and 3 (reads of this peptide / all reads for the bait, averaged over ….
In the case of chain 1 K12S, the screen value is reported as 0.0233 average fractional NGS count over selection days 2 and 3 (reads of this peptide / all reads for the bait, averaged over ….
chain 1 K12D was tested, and the screen value was 0.000722 average fractional NGS count over selection days 2 and 3 (reads of this peptide / all reads for the bait, averaged over ….
For chain 1 K12N, the screen value was 0.00219 average fractional NGS count over selection days 2 and 3 (reads of this peptide / all reads for the bait, averaged over ….
For chain 1 K12I, the screen value was 0.00212 average fractional NGS count over selection days 2 and 3 (reads of this peptide / all reads for the bait, averaged over ….
chain 1 K12V was tested, and the screen value was 0.00977 average fractional NGS count over selection days 2 and 3 (reads of this peptide / all reads for the bait, averaged over ….
chain 1 K12H was tested, and the screen value was 0.0202 average fractional NGS count over selection days 2 and 3 (reads of this peptide / all reads for the bait, averaged over ….
With chain 1 K12Y the screen value was 0.00745 average fractional NGS count over selection days 2 and 3 (reads of this peptide / all reads for the bait, averaged over ….
With chain 1 K12W the screen value was 0.0129 average fractional NGS count over selection days 2 and 3 (reads of this peptide / all reads for the bait, averaged over ….
For chain 1 K12R, the screen value was 0.00196 average fractional NGS count over selection days 2 and 3 (reads of this peptide / all reads for the bait, averaged over ….
For chain 1 K12Q, the screen value was 0.00267 average fractional NGS count over selection days 2 and 3 (reads of this peptide / all reads for the bait, averaged over ….
In the case of chain 1 K12P, the screen value is reported as 0.00867 average fractional NGS count over selection days 2 and 3 (reads of this peptide / all reads for the bait, averaged over ….
In the case of chain 1 K12E, the screen value is reported as 0.000936 average fractional NGS count over selection days 2 and 3 (reads of this peptide / all reads for the bait, averaged over ….
chain 1 P3A was tested, and the screen value was 0.000353 average fractional NGS count over selection days 2 and 3 (reads of this peptide / all reads for the bait, averaged over ….
chain 1 P3S was tested, and the screen value was 0.00024 average fractional NGS count over selection days 2 and 3 (reads of this peptide / all reads for the bait, averaged over ….
In the case of chain 1 P3Q, the screen value is reported as 0.000844 average fractional NGS count over selection days 2 and 3 (reads of this peptide / all reads for the bait, averaged over ….
In the case of chain 1 P3T, the screen value is reported as 0.000276 average fractional NGS count over selection days 2 and 3 (reads of this peptide / all reads for the bait, averaged over ….
With chain 1 Q15F the screen value was 0.00274 average fractional NGS count over selection days 2 and 3 (reads of this peptide / all reads for the bait, averaged over ….
In the case of chain 1 Q15P, the screen value is reported as 0.000686 average fractional NGS count over selection days 2 and 3 (reads of this peptide / all reads for the bait, averaged over ….
chain 1 Q15L was tested, and the screen value was 0.00865 average fractional NGS count over selection days 2 and 3 (reads of this peptide / all reads for the bait, averaged over ….

From article PMC12102759 (2025)
